{"source": "patent US20230393144A1", "about": "(I MAB BIOPHARMA US, published 2023)", "target": "T1, anti-CD47 antibody TJC4", "T1 construct": "Tested as whole antibody; It was detected with an anti-human IgG4 secondary antibody, so it is human IgG4; also called therapeutic anti-CD47 antibody", "T1 sequence (VH, as listed by the source, chain 1 of 2)": "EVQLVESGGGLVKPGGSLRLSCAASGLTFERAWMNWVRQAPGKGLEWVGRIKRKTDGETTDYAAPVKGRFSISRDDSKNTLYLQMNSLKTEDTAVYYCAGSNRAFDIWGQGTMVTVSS", "T1 sequence (VL, as listed by the source, chain 2 of 2)": "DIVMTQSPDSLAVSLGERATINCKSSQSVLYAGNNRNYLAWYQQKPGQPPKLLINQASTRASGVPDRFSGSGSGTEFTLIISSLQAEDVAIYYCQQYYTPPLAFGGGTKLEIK", "assay": "indirect ELISA / blocking IC50 of the purified hybridoma antibody against anti-CD47 TJC4", "source_text": "The binding of the anti-idiotypic antibodies generated in Examples 2 and 3 to anti-CD47 TJC4 antibody was characterized by indirect ELISA assay, and the IC₅₀ of the anti-idiotypic antibodies was used as a measure of their potential effectiveness in reducing interference by a therapeutic anti-CD47 antibody in a serological assay. Lower IC₅₀ values indicated stronger blocking ability. […] The IC₅₀ value for 9F9H11H8, and, therefore, the blocking ability of 9F9H11H8, was better than those of 37F8C4G12 and 34D8H11B5 (i.e., anti-idiotypic antibodies produced by other hybridoma clones)."}
{"binder": "anti-idiotypic antibody 9F9H11H8 (antibody, V domains shown, also called 9F9H11F8) VH: QIQLVQSGPELKKPGETVKISCKASGFTFTNYGMNWVRQAPGKGLKWMGWINTYTGQPTHADDFKGRFAFSLETSARTAFLEINSLQNEDTATYFCARGGMGVRLRYFDVWGAGTTVTVSS VL: not shown", "values": [{"measurement": "IC50", "value": 0.382, "unit": "µg/mL"}]}
